Publication PMC2141752 (The Journal of Cell Biology, 1998)

B1: canine caveolin-2 (natural protein)
chain: MGLETEKADVQLCMDDDAYSRHSAVDFGDLEQLADSGSDRDPRRLNSHLQVGFEDVIAEPVSTHSFDKVWICSHALFEVSKYVIYKFLTLLLAMPMAFAAGVLFATLSCLHIWIIMPFVKTCLMVLPSVQTIWKSVTDAVIAPLCSSVGRSFSSVSLQVSHD
modifications: phosphorylated at steady state (sites not given)
B2: β–caveolin-1 (natural protein)
chain: MAEEMSEKQVYDAHTKEIDLVNRDPKHLNDDVVKIDFEDVIAEPEGTHSFDGIWKASFTTFTVTKYWFYRLLSALFGIPMALIWGIYFAILSFLHIWAVVPCIKSFLIEIQCISRVYSIYVHTFCDPFFEAVGKIFSNIRINMQKET
B3: α–caveolin-1 (natural protein)
chain: MSGGKYVDSEGHLYTVPIREQGNIYKPNNKAMAEEMSEKQVYDAHTKEIDLVNRDPKHLNDDVVKIDFEDVIAEPEGTHSFDGIWKASFTTFTVTKYWFYRLLSALFGIPMALIWGIYFAILSFLHIWAVVPCIKSFLIEIQCISRVYSIYVHTFCDPFFEAVGKIFSNIRINMQKET

Columns and labels:
α–caveolin-1 = molecular target: B3; assay: co-IP
canine caveolin-2 = molecular target: B1; assay: co-IP

Row | Binder | ratio in the immunoprecipitate (α–caveolin-1) | ratio in the immunoprecipitate (canine caveolin-2)
1 | B1 | ~0.5 caveolin-2 per α–caveolin-1 | 
2 | B2 | ~1 β–caveolin-1 per α–caveolin-1 | ~1 β–caveolin-1 per caveolin-2
3 | B3 |  | ~1 α–caveolin-1 per caveolin-2
